Assays:
Assay in all cases: bead flow cytometry, AUC minus CD4
[1] = target: T1, HCoV-229E spike protein (Sino Biological 40605-V08B) (HCoV-229E, UniProt P15423 16-1115)
T1 sequence: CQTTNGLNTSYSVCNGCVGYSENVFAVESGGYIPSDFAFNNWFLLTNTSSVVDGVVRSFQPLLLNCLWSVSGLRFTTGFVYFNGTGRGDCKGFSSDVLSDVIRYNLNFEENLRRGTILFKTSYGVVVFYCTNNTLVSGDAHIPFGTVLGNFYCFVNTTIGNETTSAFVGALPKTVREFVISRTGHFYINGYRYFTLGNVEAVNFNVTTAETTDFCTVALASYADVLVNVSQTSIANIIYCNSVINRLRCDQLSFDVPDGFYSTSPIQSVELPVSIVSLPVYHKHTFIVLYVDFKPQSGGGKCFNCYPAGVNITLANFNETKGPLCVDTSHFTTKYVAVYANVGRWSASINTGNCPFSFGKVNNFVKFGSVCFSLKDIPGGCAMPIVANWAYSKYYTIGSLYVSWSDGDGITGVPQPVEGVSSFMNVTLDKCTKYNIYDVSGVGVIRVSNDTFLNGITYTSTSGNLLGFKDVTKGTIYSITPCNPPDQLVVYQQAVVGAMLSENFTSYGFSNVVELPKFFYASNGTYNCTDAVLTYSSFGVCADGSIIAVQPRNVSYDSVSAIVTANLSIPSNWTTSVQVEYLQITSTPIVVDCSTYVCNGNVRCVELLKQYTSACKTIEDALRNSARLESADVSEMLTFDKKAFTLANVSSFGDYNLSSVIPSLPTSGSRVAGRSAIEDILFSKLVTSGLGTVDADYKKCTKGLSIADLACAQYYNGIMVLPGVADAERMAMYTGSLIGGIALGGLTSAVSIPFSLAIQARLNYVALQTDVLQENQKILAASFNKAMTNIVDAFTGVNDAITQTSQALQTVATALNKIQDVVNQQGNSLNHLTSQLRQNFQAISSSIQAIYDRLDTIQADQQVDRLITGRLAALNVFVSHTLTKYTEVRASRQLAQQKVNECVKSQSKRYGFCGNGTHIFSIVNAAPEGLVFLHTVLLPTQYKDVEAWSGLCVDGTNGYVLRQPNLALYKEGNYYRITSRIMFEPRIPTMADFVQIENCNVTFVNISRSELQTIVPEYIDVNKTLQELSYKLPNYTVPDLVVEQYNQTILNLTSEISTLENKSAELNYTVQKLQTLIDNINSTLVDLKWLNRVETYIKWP

[2] = target: T2, HCoV-NL63 spike protein (Sino Biological 40604-V08B) (HCoV-NL63, UniProt Q6Q1S2 19-1296)
T2 sequence: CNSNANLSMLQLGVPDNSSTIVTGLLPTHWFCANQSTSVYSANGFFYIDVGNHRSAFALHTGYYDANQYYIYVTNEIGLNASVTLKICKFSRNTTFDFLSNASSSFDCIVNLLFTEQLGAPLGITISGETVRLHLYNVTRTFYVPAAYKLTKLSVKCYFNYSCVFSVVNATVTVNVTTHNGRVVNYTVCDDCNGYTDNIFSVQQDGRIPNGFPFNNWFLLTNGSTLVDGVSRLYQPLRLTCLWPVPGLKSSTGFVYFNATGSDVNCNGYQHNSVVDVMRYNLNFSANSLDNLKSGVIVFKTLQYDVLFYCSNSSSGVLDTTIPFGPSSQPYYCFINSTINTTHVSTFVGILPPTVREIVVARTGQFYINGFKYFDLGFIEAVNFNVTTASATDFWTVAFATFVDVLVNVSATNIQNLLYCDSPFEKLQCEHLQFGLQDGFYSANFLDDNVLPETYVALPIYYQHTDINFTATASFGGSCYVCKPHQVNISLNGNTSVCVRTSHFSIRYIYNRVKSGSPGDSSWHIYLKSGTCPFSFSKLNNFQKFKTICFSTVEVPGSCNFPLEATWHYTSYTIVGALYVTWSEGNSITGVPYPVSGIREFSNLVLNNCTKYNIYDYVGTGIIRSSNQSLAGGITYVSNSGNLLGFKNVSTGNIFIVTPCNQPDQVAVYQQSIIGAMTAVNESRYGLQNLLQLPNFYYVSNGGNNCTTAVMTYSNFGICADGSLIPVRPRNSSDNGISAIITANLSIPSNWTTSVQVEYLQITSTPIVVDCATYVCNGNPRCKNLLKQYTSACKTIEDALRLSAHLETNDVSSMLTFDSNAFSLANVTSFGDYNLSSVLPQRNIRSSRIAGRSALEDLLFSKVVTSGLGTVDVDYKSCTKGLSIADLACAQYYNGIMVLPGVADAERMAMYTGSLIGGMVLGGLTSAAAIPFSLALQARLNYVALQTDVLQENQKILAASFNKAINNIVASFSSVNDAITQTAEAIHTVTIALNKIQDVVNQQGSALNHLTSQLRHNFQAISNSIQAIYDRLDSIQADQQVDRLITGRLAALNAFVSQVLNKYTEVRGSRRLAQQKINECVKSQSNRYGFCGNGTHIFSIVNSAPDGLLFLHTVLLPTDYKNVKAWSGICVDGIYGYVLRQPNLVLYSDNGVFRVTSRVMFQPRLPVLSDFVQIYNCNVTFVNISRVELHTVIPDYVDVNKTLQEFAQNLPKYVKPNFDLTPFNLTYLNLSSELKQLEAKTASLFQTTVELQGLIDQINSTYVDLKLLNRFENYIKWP

[3] = target: SARS-CoV-2 spike receptor binding domain (RBD), recombinant (SARS-CoV-2, UniProt P0DTC2 319-541)
[4] = target: SARS-CoV-2 spike N-terminal domain (NTD), recombinant (SARS-CoV-2, UniProt P0DTC2 14-305)
[5] = target: T3, SARS-CoV-2 spike S2 subunit, recombinant (SARS-CoV-2, UniProt P0DTC2 686-1213)
T3 construct: domain: S2 subunit

[6] = target: T4, MERS-CoV spike protein (MERS-CoV, UniProt K9N5Q8 18-1291)
T4 sequence: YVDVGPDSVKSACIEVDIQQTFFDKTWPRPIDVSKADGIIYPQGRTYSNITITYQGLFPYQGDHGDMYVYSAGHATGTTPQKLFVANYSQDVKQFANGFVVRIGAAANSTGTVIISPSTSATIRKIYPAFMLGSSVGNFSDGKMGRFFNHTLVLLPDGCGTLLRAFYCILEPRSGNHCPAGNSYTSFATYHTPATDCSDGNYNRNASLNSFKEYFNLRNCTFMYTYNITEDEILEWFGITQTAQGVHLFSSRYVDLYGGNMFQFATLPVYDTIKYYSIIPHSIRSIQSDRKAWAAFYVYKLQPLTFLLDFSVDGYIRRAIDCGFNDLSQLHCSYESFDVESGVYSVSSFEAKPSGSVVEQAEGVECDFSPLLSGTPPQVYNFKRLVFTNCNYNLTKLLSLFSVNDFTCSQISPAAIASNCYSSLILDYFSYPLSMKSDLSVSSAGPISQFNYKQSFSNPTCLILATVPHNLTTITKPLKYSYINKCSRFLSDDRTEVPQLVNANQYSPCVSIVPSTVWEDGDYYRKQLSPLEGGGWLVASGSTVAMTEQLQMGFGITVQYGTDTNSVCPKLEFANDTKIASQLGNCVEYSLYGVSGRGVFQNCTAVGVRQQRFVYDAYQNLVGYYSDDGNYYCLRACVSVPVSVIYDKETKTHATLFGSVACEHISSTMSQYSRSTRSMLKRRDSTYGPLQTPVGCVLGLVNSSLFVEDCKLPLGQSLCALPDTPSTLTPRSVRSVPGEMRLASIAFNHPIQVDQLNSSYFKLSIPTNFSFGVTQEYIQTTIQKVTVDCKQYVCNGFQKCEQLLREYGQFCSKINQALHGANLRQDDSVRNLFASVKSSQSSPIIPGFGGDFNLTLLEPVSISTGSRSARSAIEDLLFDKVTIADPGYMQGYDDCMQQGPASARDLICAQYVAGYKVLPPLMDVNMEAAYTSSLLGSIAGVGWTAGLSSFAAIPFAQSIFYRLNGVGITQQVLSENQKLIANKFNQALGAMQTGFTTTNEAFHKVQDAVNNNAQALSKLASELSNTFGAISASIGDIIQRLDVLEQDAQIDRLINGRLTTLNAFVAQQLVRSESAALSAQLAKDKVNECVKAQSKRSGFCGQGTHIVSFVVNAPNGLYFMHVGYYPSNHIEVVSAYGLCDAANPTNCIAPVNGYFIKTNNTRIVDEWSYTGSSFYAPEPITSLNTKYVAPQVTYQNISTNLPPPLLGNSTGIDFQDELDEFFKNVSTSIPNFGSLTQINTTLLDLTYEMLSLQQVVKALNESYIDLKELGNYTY

Measured: binding result

B1: COV93-04 (antibody, V domains shown)
VH: QLQLQESGSGLVKPSQTLSLTCVVSGDSISSGGYSWSWIRQQPGKALEWIGYIYHSGVTNYNPSLKSRVTISVDRSTNQFSLKLSSVTAADTAVYYCARDGKYNWFDPWGQGILVTVSS
VL: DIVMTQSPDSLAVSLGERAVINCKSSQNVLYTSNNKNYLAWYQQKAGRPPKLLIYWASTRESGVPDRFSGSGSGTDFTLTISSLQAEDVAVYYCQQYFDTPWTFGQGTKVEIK
no binding (tested: 200 µg/mL): [1] | [2] | [3] | [4] | [5]

B2: COV57-01 (antibody, V domains shown)
VH: QVQLVESGGGVVQPGRSLRLSCTVSGFTFNNYGMHWVRQAPGKGLEWLAVISYEGSKKFYADSLEGRFSISRDSSKNTLYLQMNSLTIEDTAVYFCAKRNSIFWFGEGRKDAFDVWGQGTRVIVSS
VL: DIQLTQSPSSLSASVGDRVTITCRASQTVDNYLNWYQQLPGKAPKLLIHTASTLQSGVPSRFSATSSGTDFTLTISGLQPDDSATYFCQQSYSVPLTFGGGTKVEIKV
no binding (tested: 200 µg/mL): [2] | [6]

B3: COV77-02 (antibody, V domains shown)
VH: QVQLVESGGGVVQPGRSLRLSCAASGFTFSDHGMHWVRQAPGKGLQWVALIWYDGSNMFYRDSVKGRFTISRDNSKNTVYLEMSSLRAEDTALYYCARGTDVWSGLSLDALDVWGQGTMVTVSP
VL: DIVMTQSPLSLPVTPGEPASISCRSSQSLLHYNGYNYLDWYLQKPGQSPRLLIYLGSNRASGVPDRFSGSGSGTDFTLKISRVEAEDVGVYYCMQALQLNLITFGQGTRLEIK
no binding (tested: 200 µg/mL): [1] | [2] | [3] | [4] | [5]

B4: COV89-28 (antibody, V domains shown)
VH: EVQLVESGGGLVQPGRSLRLSCAASGFTFDDYAMHWVRQAPGKGLEWVSSISWNSGSIVYADSVTGRCTITRDNAKNSLYLQMNSLRPEDTALYYCAKGYSSSPVVYYMDVWGKGTTVTVSS
VL: DIQMTQSPSSVSASVGDRVTITCRASQGIAGWFAWYQQKPGKAPKLLIYATSSLQRGVPSRFSGSGSATHFTLTITSLQPEDFATYYCQQANIFGPGTKVDIK
no binding (tested: 200 µg/mL): [1] | [2] | [3] | [4] | [5]

B5: COV49-42 (antibody, V domains shown)
VH: QVHLVQSGAEVKNPGVSVKVSCKASGYTFTTSGITWVRQAPGQGLEWMGWISTYNGNTETAQTFQGRVTMTTDTSTSTAYMELRRLRSDDTAVYYCARVQSVATSSNYFFDYWGQGTRVTVSS
VL: DIQMTQSPSSLSASVGDRVTITCRASQTIDRFLNWYQQKPGKAPKLLIYAASRLQSGVPSRFSGSGSGTTYTLTISSLQPEDFATYFCQQSYSDPRALTFGGGTKVEIK
no binding (tested: 200 µg/mL): [1] | [2] | [3] | [4] | [5]
